Laboratory results: a protein production outcome set (Wang et al. 2014)

Assay: label from the status in PepcDB records

Sequence	protein production
MIRKFSLIMATYGRKDEVGCFLESLMNSNYPMDKVEVIIVDQNKEIDLEPIISKYKEKIKVVHIKSNERGLALNRNKGLEIATGDIIAFPDDDCEYLVDTLNIVNNYFENEHCDLLMGRIVERNGEDSLREWPKEKIEINKNNFYTKCSSVTMFLDSKKCFVKFNDQLGAGKYFGACEDADLIYKNCKKGLKIIYNPELQIYHPHYDSNSNMDDKKIYSYGLGFGAMVKSNFDFSMLILFIKAEGYHFLKSLIYLITFKTTKSKRSWLAFKSRIKGFFEYKN	failed
MIRKKQTEKPSEWDPPAPSTVYIKIKNIPYETFKTKLNQGLVTTDLDQIRYRLEKHIYCCGVCSKHVNGYCVITNRKAEPGWICKSFVPKEEFIYLDSRPDRKDPAEFRYLSETGLEKDYIESAGARERRHGNEGTKALYDEGVTLYRQGRLKLALEAFDSVLEANPLDFAALFHKGNALLKLKRYEEALEVFERASEINQENAGLWTNLGFIFTKLERFRDSLEAFEKSISLNPVQKNAWEGRDAVIARVRLCEERLRESEEALKKNPEDPDTLFKIGKIHLRLGEQEKAIQAFKKALEIKPENAEAWQFRGKVLFKAGSEKEALHAFEKATRLKPDYAEAWFEKGNAFLKLENLKGAENAFKIAARLWDSKGIKSKAESARDKVKRLHSSN	failed
MIRLSNENTIFFMDKENVPIASCQSGDTVIFETKDCFSDQITNEEQALTSIDFNRVNPATGPLYVEGARRGDMLEIEILDIKVGKQGVMTAAPGLGALGESLNSPTTKLFPIEGDDVVYSTGLRLPLQPMIGVIGTAPPGEPINNGTPGPHGGNLDTKDIKPGTTVYLPVEVDGALLALGDLHAAMGDGEILICGVEIAGTVTLKVNVKKERMFPLPALKTDTHFMTIASAETLDAAAVQATKNMATFLANRTALSIEEAGMLLSGAGDLYVSQIVNPLKTARFSLALHYFEKLGVDLCN	not failed
MIRNIVFDLGGVLIHLNREESIRRFKAIGVADIEEMLDPYLQKGLFLDLESGRKSEEEFRTELSRYIGKELTYQQVYDALLGFLEEISAEKFDYIDSLRPDYRLFLLSNTNPYVLDLAMSPRFLPSGRTLDSFFDKVYASCQMGKYKPNEDIFLEMIADSGMKPEETLFIDDGPANVATAERLGFHTYCPDNGENWIPAITRLLREQK	not failed
MIRRLLRMVRGRTGQRLPDGGIQQDEASKIETAGDSDAREQRAADSDTTREMGTDTGTGLSTGRFVDENVRLLLNGLSQPTFVLDAEGEVVAWNEALAELTGATRDEAVGHDHASEMFYPDGRRAKTLADKVLEHPETVHEEYDVELEAPEMGRVADTSTMLDQYGDEKHIYFAATPQYRDGELVGVVETVIDRTEEVERRLAIERLVGTLGSTLESLRSGELDARAELEDEHAAALDDELLDVVDALNAFAEEFQTLSGRVEQQADRLDDAVDRVVEAAAEISDAVGEQNELVDDAVSEMQTFSAQMEEVAATAQDVDEAASDAKETAEHGLETGQDAREAAKEVTDISEELVDDITALQARMDDIESVVEVVSDVADQTNILALNANIEAARADESGEGFAVVADEVKSLADETQSHTDDITDSIEKLREQTDRTVSAAMTSSERVDRADQRIQEMFDAFEDIADAVEAAADGIAEVAQANDDQAASIEEVTATLETVREHSERAETAAEDVESAATSQAESIDALIKRVERLREGTADAADAA	failed
MIRSLLLASAACALAFPAAAETVAIVNARLEPVSSPAIPNGTLVIKDGKIAALGASIQVPAGARVIDAKGGVVTPGLIAPSSNLGASEISGVRETRDDGTGSALSAAFDISYGVNPASTFLGLARDGGITGSAVTPVLSGTGGGAHEHADDGVVEEMTAGAHGDGDPPLFGGQAAFIRLKAGSPDIVEARKLAVTVSLGESGARAAGGSRGANLVLLRSALEDARAFASRRAAFEQGATRDFGLSRLDLQALIPVVQGKTPLLIRVSRAADIRQALKFAAEERIKIVLEGVEEGWMVADEIAKAGVPVILDPQDDLPGSFETLGSRLDNAARLHAAGVSVAINGSRDFNNLRQERLNAGLAVAHGLPYPAALAAVTLVPARIWGQADKVGSLEVGKLADVVVWNGDPLETTSWPTAVLIGGVEQPKDGRHEQLKARYAAGDQNGYPPAYR	failed
MIRVGYLGPEATFTNMAVSRFFPEAEHVPYRTIPDCMDAAANGNVDYAVVPLENAIEGSVNITIDYLVHEQPLSIVGEITVPIQQHLLVHPQYAEVWEEVYAVHSHPHAIAQCHKFLNEELKGITARDMTSTSAAAQYVKEHPEEKIAAIANEAAAEKYGLTIVRRSIHTHKNNHTRFLVLHKKKKAILSNNGENRGEKTTLMITLPADYAGALYQVLSAFAWRKLNLSKIESRPMKTGLGNYFFLIDVDKAYDDVLLPGVTMELEALGFSVTVLGSYSSYWL	failed
MISAGDFKNGVTFELDGQIFQVIEFQHVKPGKGAAFVRTKLKNIVTGATIEKTFNPTDKMPKAHIERKDMQYLYNDGDLYYFMDTETFEQLPLGKDKIGDALKFVKENEIVKVLSHKGNVFGIEPPNFVELEVTDTEPGFKGDTATGATKPAIVETGASIKVPLFVNKGDIIRIDTRTGEYMERV	not failed
MISEIIEFLESNFFYLHPGYTPLNTVVFGIVLGIAVLIILRMFRWLKKDPGELLVPLLPFIFLGSGARALVDNGIYPLTHLLVTPGIYILVGLTTIATLIAAVKLEETRGWDYRKLIFATGSVLAAPNLISIRHIDPVPFLSVLGVFSVFSAAFYALSLRWEFLRGRMNLPVIYAHLFDASSTYVAVDWYGYIEQHVLPSALTGLTGTAMVMFPLKMAVILTALYAIDRYVESDMDSEALKLVIFILGLAPGLRNFLSLSMAV	failed
MISFSVMALVFGVVFLAELPDKTALAGLVLGTRYRASYVFAGVAAAFALHVALAVAAGSVLTLLPQQIVHALTGVLFLGGAAVLLMKKGEGEEEIRKPENQSFWKVSSAGFMLILVAEFGDLTQIMTANLAARYDDPLSVGLGAVLALWAVAGLGIVGGRALMKRVPLRLITKVAALLMLALGAWSLYEAVAG	failed
MISKHQAVKKIFDQISDKYDLIDTIISLGLDQRWRRSLISNLKLMPGLQCLDCGAGSGKVTELIMESCDSCSVTALDITDSMFNPELTKRCKFVVSPAESLPFSDETFDRVSSAFLTRNLADVDKYFSEVYRVLKPGGIFVNLDIFNPTKPVFSQFFSLYFYRMVPFFGNHATHSRNYSYLANSVKFFYSPFILSKKLESKGFIVEPKDLFFGSVFMHIAQKKLEHHHHHH	not failed
MISKVIEALAVFTTSVISSMGYGGIVLLMAIESACIPLPSEIIMPFAGYLVYRGEMTLHGAALAGAIGCVVGSIPAYYLGQFGGRPLIEKYGRYVLLSHKELDLADRLFQRWGQWVVFAGRLLPVVRTFIAFPAGVSRMPMGKFIAYTFVGSYPWCYALAWVGEWAGEAWHTDPRVKAVYHRFELVIVVAGVLAVAWFVWHKVKEARRARVPAAADEG	failed
MISLKNFGLLFWKRFSENKLNQVAGALTYSTMLAMVPLVMVIFSIFSAFPVFNEVTGELKEMIFTNFAPSASDMVGEYIDQFVSNSKKMSAVGIVSLIAVALMLINNIDRTLNSIWHNSQSRSPLSSFAIYWMILTLGPLIIGVSIGISSYIKIMFEQSEHLSLGLKLLSFVPFLFTWFIFTLIYTVVPNKKVKIKHSAYGAFLAAIFFTLGKQAFTWYIVTFPSYQLIYGAMATLPIMLLWIQISWLVVLVGAQLASTLDEIGEQIEQ	failed
MISSATKTLQTNNKTIYVAILSTLTFFLFLDYIPGLQAWSAWVTPPVALFLGLIFALTCGQAHPKFNKKTSKYLLQYSVVGLGFGMNLQSALASGKEGMEFTVISVVGTLLIGWFIGRKIFKIDRNTSYLISSGTAICGGSAIAAIGPVLRAKDSEMSVALGTIFILNAIALFIFPAIGHALDMTEHQFGTWAAIAIHDTSSVVGAGAAYGEEALKVATTIKLTRALWIIPMAFATSFIFKSKGQKISIPWFIFFFILAMIANTYLLNGVPQLGAAINGIARKTLTITMFFIGASLSLDVLRSVGVKPLIQGVLLWVVISLSTLAYIYFV	failed
MISSLKLTEMCTHCGFCLETCPTYVVTRNEVHSPRGRIEAVRIGINSTGFETCMYCRLCETACPAGVKYAQIITPVRKSSLKKTVMEKMLENPKLLAKSLKLLSKANSYPEVQRFVKFVKPNEVSEPLETDGEGDIILFPGCIESVIFRKTVEKAYKYLGKKYKVKIINGCCGLAHISNGNYEGAKKLAIRLAEKVKGKKVITLQSNCAAFMKEYKEWFGIEINAYDFAEFLIKEGIELPKVNDTFTVHYPCHAYRQKLVSHIRNVAEKMGIKIREMEDPHFECGAGGDYWLSHPKLSDMVMNVKRGKIAKSEAKKVIVTNSVCALAIRSMGYDVYHIADLLDT	failed
MISTLNEIMKCIEDNDTIIIHRHVRPDPDAYGSQLGLKYYIQQKFPQKQVFAVGEAESSLSFIGELDNIDDKTYQDALVIVCDTANAPRIDDERYSTGSKLIKIDHHPAVDQYGDINLVNTNASSTSEIIYDLISHFNDEAIVNKDIASVLYLGIVGDTGRFLFNNTSEHTMEIAGKLIGHDIDHNALLNKMMEKDPKMLPFQGYVLQHFELMDDGFCQVKITEDVLEQFGIQPNEASQFVNTIADIKGLKIWVFAVDEGSEIRCRLRSKGQLIINDIAQDFGGGGHPNASGVSVNSWDEFEQLATALRTKLN	failed
MISWRDRLTKALPQIAVVVHDLLMVWVCWQLLHAGRYSMLRDAPNLPLWDWRTAVVLVAQGLVFWKMGLYRGLWRFASVPDLWNIFKASFLGLVAIVLALAYDRLDGVPLSVLVVYPFALSALLGTPRLLYRAWKDYQIAHSGDAAQRVLILGAGRAAEGLVRDLRRTGAFVPVGYLDDANNLHGAKIQGLNVLGNLDQAAAIAKETAAKLLVIAIPSLDASGMQRVVAICESTGLPFRMVPKLINVLEGRSLPGELKEVAIEDLLNRKPVTPDWRLIRDWLTNKTVMVTGAGGSIGSEVCRQCARHGARRIVLLEIDELALLTIDSDLRRLFPDIEVVRVLGDCGDPAVVAHALNTATPDAVFHAAAYKQVPLLEEQLREAVRNNVLATENVARACQRARIETFVFISTDKAVEPVNVLGASKRYAEMICQSLDARDAPTRFITVRFGNVLDSAGSVVPLFREQIRQGGPVTVTHPDVTRYFMTIPEACQLVIQAAASASHGAIYTLDMGEPVPIRLLAEQMIRLAGKQPGKDVAILYTGLRPGEKLHETLFYSDEAYRPTAHPKILEAGVREFSHEQVLQLVMRLREAVNRYDIKAMETVLGSLMPDFAAARRKVDARSDTVVPFPAREVRRL	failed
MITDIPWNRGEWTNQPAAVVEQAGDLLVTAAESSDAWRVTSYGFIHDTEHALLAPLPQDSAMEVEFTAAFSQQFDQAGIFVRISAEHWIKAGVEFADGAAQVGAVVTNRFSDWSLAPVPDWNGERVRMRVSRSGDALTIRAASGSNELRLVRVVPLAPDLVTVAGPFTCAPTRAGLTVPFHSWRAKPADSQLH	failed
MITFKEFVDYWFEAYASTAVKPSTQKRYRQLLKPALRAIGNKPLNKVKPLDIQNIYIALAGTQSNCTILKLHRLLHEIFKHAQMWEYISDNPVKKVVPPTPELEHHHHHH	not failed
MITIDPEYFEILKEFGAERVVRCYQCGTCTGICPVSTTDASFPRKPVLLSRFGVGEVIENFEEAWLCLSCNLCTEFCPRDVKPSETMLAIKRVLVENGKTPPYIRDFFQLEHHHHHH	failed
MITIEISINLELIISFYLLFILGANNVANAIGTAYASRATTYRNLLILFSISVIIGSLFAKNVGSTVNSLSSDALTALIISALVMTLSTYKKVPISLHTVIICSLIGLNFNSSNLYVFGEILLSWILSPIIAVVIAYILYSAYEKIDISILKKITMIRYFLLISAAVVAFNLGSNDLPTVLGTFTTSQIIYIIGAIFLCLGAYLYGNRVSETLSMITNLSVSSAFIAQLSGGLAVTIFTALGMPVSTTQAIVGGILGVGLTKGIKTVRWKVLKNIIFWWVVAPIIALIIGFIINRMI	failed
